T1: Mmp53 (mouse p53) with C-terminal FlAsH tag, labelled with FlAsH (mouse (Mus musculus)), P02340
T1 chain: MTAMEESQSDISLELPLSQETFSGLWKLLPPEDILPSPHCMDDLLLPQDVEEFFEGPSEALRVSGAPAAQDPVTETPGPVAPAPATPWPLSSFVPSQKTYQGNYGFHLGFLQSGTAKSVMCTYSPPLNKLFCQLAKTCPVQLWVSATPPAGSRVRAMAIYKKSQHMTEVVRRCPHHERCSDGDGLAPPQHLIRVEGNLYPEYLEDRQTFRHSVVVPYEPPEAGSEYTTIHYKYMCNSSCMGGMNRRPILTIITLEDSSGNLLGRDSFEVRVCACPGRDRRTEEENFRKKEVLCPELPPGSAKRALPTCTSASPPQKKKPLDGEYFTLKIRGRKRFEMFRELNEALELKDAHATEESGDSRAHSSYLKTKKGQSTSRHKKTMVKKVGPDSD

T2: Mus musculus p53, full length, with C-terminal FlAsH tag, FlAsH-labelled (Mus musculus), P02340
T2 chain: T1 chain

B1: Mmp53 (mouse p53) with C-terminal FlAsH tag, labelled with FlAsH, P02340 1-390 (natural protein)
chain: T1 chain
B2: Mus musculus p53, full length, with C-terminal FlAsH tag, FlAsH-labelled, P02340 1-390 (natural protein)
chain: T1 chain
modifications: here or on the partner: FlAsH (from FlAsH-EDT2, an arsenic derivative of fluorescein) on the C-terminal CCPGCC tetra-cysteine tag; FlAsH (from FlAsH-EDT2, an arsenic derivative of fluorescein) on the C-terminal CCPGCC tetra-cysteine tag

Experiments:
[1] = biological target: T1, Mmp53 (mouse p53) with C-terminal FlAsH …; test: dimer-tetramer equilibrium; conditions: natural protein, chains chain, FlAsH (from FlAsH-EDT2, Lumio Green) on the C-terminal CCPGCC tetra-cysteine tag, remark: other sources report otherwise
[2] = biological target: T1, Mmp53 (mouse p53) with C-terminal FlAsH …; test: AUC; sedimentation velocity with fluorescence detection, FlAsH-labelled protein at 5-500 nM; 150 mM NaCl, 25 mM phosphate pH 7.2, 10% glycerol, BSA 0.2 mg/mL, 1 mM beta-mercaptoethanol, 10°C; tetramer to dimers; Kd expressed in concentration of monomer; conditions: remark: other sources report otherwise
[3] = biological target: T2, Mus musculus p53, full length, with …; test: AUC; sedimentation velocity with fluorescence detection, FlAsH-labelled protein at 5-500 nM (monomer); 150 mM NaCl, 25 mM phosphate pH 7.2, 10% glycerol, BSA 0.2 mg/mL, 1 mM β-mercaptoethanol, 10°C; tetramer to dimers; Kd expressed in concentration of monomer; conditions: remark: other sources report otherwise

Row | Binder | Kd [1] [µM] | fold weaker self-association (dimer-tetramer equilibrium) than Dmp53, Drp53 and ΔNp73β [2] [fold] | stoichiometry N [2] | Kd [3] [µM]
1 | B1 | 0.0172 | 10 | 4 | 
2 | B2 |  |  |  | 0.0172

Source: article PMC2807882
